Assay results as given in paper PMC12246119 (Nature Communications, 2025).

What was measured:
Crm1 = target: T1, Crm1 (human, UniProt O14980 1-1071); experiment: cryo-EM structure; purified RanBP2^RBD4/SUMO1^Q94P-RanGAP1/Ubc9 incubated with excess Crm1 and Ran^Q69L(GTP), gel filtration in 20 mM HEPES pH 7.4, 110 mM potassium acetate, 2 mM magnesium acetate, 1 mM TCEP; lightly crosslinked with 250 µM BS3; 0.1% CHAPSO; 9.7 mg/mL; details: both partners purified
T1 construct: Crm1 (exportin), human, full length, wild type; also called exportin Crm1; source: E. coli BL21(DE3) SoluBL21 with Codon Plus (RIL) plasmid, purified (Ni-NTA, Ulp1 cleavage, Superdex 200, MonoQ); not shown: His6, N-terminal, cleaved; Smt3, N-terminal, cleaved
T1 sequence (O14980 whole entry): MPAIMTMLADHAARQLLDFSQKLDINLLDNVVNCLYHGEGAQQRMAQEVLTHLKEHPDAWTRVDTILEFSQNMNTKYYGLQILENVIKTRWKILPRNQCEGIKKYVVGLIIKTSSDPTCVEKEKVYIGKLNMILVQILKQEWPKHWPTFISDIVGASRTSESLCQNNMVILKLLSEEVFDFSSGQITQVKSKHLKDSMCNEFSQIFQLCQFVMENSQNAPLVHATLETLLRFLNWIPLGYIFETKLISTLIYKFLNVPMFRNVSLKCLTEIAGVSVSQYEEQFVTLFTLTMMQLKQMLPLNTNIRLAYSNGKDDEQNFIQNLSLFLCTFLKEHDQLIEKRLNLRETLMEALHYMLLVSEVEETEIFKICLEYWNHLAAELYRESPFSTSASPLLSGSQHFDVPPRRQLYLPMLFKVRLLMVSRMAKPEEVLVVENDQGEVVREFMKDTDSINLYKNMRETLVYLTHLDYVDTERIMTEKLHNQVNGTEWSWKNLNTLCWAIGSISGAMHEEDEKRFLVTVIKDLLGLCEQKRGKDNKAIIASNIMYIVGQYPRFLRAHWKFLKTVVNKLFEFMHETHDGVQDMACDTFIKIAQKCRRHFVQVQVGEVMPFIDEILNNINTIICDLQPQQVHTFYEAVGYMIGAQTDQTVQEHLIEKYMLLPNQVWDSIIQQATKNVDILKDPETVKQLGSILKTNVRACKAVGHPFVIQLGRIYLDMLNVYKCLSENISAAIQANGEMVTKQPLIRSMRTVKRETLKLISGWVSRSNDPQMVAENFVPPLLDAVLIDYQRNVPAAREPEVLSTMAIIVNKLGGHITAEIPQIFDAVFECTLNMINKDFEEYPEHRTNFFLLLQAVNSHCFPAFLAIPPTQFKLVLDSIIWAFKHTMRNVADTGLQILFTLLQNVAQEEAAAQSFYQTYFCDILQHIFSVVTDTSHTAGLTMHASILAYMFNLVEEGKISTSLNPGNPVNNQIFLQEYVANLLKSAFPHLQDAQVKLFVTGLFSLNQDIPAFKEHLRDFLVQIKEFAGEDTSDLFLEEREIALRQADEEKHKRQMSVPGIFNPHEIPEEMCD

Ran^Q69L(GTP) = Ran^Q69L(GTP) (human, UniProt P62826 1-216, Q69L); experiment: as above; details: both partners purified

binding result (Crm1): binds | binding result (Ran^Q69L(GTP)): binds
B1: RanBP2^2446-3060 (RanBP2^RBD4) (domain or fragment, human, UniProt P49792 2446-3060, looked up)
chain: DSLITPHVSRSSTPRESPCGKIAVAVLEETTRERTDVIQGDDVADATSEVEVSSTSETTPKAVVSPPKFVFGSESVKSIFSSEKSKPFAFGNSSATGSLFGFSFNAPLKSNNSETSSVAQSGSESKVEPKKCELSKNSDIEQSSDSKVKNLFASFPTEESSINYTFKTPEKAKEKKKPEDSPSDDDVLIVYELTPTAEQKALATKLKLPPTFFCYKNRPDYVSEEEEDDEDFETAVKKLNGKLYLDGSEKCRPLEENTADNEKECIIVWEKKPTVEEKAKADTLKLPPTFFCGVCSDTDEDNGNGEDFQSELQKVQEAQKSQTEEITSTTDSVYTGGTEVMVPSFCKSEEPDSITKSISSPSVSSETMDKPVDLSTRKEIDTDSTSQGESKIVSFGFGSSTGLSFADLASSNSGDFAFGSKDKNFQWANTGAAVFGTQSVGTQSAGKVGEDEDGSDEEVVHNEDIHFEPIVSLPEVEVKSGEEDEEILFKERAKLYRWDRDVSQWKERGVGDIKILWHTMKNYYRILMRRDQVFKVCANHVITKTMELKPLNVSNNALVWTASDYADGEAKVEQLAVRFKTKEVADCFKKTFEECQQNLMKLQKGHVSLAAELSK
notes: RanBP2 (Nup358), human, residues 2446-3060: FG1, IR1-M-IR2, FG2 and RBD4; also called RanBP2 FG1-IR1-M-IR2-FG2-RBD4 fragment; hRanBP2^RBD4; source: E. coli BL21(DE3) Codon Plus (RIL), purified (Ni-NTA, Superdex 200)
